According to article PMC2841635:

Target: purified tagged Ack1 (HA-tagged Ack1 in methods and Fig. S1B; Myc-tagged Ack1 in the results) (UniProt Q07912)
Test: co-IP; in vitro binding assay: 50 nM of purified Ack and AKT in mRLB (25 mM Tris pH 7.5, 175 mM NaCl, 1% Triton X-100, 10% glycerol), 30 mins at room temperature, then anti-Ack1 antibodies and Protein-A-sepharose overnight at 4°C; IB with anti-AKT antibody

Sequence of UniProt Q07912 (Q07912 whole entry): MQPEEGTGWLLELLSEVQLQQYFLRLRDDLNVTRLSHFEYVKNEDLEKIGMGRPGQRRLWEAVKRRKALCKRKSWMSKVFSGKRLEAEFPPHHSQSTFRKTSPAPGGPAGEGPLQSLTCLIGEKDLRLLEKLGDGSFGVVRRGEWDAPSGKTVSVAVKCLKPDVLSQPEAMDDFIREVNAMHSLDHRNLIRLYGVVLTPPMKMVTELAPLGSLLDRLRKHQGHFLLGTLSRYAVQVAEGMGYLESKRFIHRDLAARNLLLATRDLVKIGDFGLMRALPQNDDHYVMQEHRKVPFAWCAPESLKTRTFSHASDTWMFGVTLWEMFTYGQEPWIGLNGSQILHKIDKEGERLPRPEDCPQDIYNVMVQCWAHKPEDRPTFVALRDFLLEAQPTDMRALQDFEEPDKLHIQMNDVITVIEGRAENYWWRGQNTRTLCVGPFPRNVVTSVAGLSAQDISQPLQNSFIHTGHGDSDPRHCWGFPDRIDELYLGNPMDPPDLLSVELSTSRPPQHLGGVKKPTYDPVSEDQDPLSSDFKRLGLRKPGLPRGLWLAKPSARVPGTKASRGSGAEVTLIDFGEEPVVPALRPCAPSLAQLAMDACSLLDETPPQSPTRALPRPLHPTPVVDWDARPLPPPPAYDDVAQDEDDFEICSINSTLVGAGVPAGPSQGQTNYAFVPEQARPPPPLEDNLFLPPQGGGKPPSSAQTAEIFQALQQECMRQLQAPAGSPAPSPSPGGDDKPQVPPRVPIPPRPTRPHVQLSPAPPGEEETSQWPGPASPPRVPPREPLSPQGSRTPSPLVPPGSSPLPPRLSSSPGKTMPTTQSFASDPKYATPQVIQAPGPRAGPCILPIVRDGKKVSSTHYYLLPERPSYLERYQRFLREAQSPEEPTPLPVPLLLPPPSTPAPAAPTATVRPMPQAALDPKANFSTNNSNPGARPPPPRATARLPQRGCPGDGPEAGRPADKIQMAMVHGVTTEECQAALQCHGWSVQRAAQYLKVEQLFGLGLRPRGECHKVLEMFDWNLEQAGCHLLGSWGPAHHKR

Substance “HA-tagged AKT expressed in HEK293T/HEK293 cells (from UniProt P31749 1-480) (enzyme)” has a percent of total AKT in complex with Ack1 of 6.35%.
